This note sets out measurements from publication PMC11228480 (Proceedings of the National Academy of Sciences of the …, 2024).

One may read the stoichiometry N as the number of molecules, sites or subunits per partner or assembly.

Data set [1] addresses T1, ryanodine receptor type 1 (RyR1), endogenous, purified from mouse skeletal muscle (mouse, UniProt E9PZQ0 1-5035). As to the kind of experiment: pull-down.
The target in data set [2] is T1, ryanodine receptor type 1 (RyR1), …. As to the kind of experiment: cryo-EM structure.
Data set [3] concerns the molecule itself. The experiment in a line: cryo-EM structure.

T1 sequence (E9PZQ0 whole entry): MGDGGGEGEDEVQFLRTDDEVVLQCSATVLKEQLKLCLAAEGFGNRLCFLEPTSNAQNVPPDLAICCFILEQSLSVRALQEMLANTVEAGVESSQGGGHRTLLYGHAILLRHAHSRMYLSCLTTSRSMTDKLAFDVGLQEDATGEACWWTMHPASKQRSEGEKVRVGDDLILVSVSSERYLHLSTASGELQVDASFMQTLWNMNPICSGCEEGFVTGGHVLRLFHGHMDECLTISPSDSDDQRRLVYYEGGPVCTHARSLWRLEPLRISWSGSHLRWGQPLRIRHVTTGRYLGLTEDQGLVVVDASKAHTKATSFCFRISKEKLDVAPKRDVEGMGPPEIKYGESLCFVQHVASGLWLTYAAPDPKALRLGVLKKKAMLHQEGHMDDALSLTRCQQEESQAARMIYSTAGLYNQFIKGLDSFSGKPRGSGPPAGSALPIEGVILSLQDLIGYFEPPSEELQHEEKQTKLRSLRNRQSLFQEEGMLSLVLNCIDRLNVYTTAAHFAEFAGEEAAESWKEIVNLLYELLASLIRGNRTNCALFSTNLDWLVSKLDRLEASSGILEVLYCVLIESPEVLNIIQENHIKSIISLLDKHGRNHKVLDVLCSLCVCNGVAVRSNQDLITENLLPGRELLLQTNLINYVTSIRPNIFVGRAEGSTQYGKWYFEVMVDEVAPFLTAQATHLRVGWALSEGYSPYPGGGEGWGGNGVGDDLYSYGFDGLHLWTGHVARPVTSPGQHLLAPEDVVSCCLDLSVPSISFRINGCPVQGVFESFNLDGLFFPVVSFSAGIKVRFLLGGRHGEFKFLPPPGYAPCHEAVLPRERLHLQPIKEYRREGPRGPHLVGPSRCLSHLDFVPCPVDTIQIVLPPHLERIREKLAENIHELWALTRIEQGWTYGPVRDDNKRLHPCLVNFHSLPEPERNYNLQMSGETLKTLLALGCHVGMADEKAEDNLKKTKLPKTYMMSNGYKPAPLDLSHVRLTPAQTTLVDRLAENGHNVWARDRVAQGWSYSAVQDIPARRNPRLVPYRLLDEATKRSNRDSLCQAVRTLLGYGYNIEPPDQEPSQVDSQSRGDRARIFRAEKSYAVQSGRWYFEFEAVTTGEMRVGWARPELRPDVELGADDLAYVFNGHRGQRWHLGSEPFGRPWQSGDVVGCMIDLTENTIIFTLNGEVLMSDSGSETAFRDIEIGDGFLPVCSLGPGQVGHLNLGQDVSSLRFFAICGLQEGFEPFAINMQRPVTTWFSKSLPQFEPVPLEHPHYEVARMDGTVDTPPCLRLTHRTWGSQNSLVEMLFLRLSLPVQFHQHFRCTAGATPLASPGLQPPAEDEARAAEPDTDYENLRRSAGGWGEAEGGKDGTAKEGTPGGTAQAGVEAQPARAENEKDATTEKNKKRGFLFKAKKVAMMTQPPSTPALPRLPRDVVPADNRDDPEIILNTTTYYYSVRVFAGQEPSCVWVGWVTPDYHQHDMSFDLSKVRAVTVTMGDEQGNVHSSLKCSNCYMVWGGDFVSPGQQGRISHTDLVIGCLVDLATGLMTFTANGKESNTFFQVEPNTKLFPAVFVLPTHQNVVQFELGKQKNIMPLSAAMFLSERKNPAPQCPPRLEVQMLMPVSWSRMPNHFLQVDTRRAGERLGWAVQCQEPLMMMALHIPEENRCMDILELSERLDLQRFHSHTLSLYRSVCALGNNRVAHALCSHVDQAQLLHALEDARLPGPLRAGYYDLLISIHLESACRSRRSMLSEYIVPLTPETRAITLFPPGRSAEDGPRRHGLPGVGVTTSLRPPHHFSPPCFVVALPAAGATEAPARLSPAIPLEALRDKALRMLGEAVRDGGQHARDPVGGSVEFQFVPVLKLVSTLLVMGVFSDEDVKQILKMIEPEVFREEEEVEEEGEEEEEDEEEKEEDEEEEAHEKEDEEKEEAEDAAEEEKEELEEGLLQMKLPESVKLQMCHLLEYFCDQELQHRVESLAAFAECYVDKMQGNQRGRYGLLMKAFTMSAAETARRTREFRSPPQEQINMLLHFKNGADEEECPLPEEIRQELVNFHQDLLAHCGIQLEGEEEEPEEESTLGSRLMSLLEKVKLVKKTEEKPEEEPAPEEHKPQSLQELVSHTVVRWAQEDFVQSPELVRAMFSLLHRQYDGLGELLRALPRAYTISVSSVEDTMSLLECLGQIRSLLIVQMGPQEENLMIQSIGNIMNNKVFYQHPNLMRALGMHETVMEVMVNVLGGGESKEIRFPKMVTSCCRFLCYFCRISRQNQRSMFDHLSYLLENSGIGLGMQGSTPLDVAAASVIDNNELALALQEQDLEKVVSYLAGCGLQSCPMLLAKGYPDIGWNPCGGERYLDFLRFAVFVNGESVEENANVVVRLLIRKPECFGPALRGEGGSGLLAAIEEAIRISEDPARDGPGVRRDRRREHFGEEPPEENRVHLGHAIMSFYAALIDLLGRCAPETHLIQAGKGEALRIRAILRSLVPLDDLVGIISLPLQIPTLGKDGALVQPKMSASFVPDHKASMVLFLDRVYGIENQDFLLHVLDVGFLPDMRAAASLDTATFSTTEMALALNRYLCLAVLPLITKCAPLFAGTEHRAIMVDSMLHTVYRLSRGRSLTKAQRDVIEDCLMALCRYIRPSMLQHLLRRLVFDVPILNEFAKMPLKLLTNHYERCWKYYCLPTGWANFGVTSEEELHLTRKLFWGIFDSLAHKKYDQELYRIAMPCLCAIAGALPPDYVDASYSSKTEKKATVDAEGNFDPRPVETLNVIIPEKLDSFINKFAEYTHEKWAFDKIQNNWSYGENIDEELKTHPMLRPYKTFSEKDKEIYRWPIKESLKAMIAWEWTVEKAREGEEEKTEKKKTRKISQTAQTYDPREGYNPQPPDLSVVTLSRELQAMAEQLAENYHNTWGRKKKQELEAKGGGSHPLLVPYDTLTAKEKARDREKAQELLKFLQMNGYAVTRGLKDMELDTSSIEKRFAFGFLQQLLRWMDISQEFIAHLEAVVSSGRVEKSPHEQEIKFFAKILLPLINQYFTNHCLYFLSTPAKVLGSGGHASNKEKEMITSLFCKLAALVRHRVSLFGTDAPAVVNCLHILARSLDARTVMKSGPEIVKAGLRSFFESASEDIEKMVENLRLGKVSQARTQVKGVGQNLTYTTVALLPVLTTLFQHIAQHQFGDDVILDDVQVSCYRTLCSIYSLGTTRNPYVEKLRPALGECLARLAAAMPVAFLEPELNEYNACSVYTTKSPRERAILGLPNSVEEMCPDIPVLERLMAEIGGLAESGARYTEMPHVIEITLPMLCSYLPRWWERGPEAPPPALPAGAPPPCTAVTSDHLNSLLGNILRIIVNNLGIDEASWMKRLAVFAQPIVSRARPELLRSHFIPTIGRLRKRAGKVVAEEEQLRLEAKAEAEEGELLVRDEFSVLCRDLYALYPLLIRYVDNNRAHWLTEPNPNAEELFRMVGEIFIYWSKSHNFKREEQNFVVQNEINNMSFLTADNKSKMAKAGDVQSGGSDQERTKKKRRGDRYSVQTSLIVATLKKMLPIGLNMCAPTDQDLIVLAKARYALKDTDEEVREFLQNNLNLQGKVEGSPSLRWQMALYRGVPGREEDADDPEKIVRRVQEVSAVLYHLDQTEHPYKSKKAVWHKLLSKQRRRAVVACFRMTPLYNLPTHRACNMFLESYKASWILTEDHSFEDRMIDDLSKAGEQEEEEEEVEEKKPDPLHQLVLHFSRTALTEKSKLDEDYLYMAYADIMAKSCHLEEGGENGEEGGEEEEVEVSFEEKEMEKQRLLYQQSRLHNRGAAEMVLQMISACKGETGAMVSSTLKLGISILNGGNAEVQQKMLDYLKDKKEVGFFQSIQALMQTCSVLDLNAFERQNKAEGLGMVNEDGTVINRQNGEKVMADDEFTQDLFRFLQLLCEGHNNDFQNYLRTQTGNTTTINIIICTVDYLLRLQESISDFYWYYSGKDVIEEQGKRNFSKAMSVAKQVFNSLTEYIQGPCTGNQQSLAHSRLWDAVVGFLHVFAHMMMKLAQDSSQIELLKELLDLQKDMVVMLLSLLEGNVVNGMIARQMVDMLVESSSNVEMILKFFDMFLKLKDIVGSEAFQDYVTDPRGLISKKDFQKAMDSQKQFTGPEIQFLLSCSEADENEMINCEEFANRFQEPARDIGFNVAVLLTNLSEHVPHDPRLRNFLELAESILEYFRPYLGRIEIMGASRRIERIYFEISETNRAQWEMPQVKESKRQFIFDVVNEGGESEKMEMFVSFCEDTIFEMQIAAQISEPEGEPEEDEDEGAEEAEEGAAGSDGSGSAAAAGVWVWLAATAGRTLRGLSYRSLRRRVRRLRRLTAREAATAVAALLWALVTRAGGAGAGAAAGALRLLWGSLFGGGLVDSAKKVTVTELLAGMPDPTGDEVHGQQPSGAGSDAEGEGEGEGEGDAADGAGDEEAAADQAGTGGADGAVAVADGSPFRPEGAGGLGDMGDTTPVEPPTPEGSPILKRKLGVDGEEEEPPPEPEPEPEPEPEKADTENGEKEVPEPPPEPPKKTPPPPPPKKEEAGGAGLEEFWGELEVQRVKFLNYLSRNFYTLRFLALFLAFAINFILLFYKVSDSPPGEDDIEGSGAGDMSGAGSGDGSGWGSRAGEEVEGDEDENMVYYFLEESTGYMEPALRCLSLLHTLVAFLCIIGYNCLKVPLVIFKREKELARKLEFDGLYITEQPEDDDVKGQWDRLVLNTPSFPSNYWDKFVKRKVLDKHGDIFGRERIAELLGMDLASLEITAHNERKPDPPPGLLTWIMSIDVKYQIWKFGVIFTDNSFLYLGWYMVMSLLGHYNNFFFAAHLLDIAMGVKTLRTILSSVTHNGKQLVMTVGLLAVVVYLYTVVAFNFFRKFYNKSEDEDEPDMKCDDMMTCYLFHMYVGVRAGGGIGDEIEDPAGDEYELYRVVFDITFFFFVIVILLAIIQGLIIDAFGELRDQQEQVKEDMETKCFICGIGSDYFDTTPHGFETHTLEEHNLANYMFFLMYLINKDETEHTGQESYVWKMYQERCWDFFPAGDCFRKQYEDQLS

B1: GST-tagged S100A1 (natural protein)
chain: MGSELESAMETLINVFHAHSGQEGDKYKLSKKELKDLLQTELSGFLDVQKDADAVDKVMKELDENGDGEVDFKEYVVLVAALTVACNNFFWETS
Take B1: in data set [1], the binding result was “binds”.

B2: recombinant mouse S100A1 (untagged) (natural protein)
chain: MGSELESAMETLINVFHAHSGQEGDKYKLSKKELKDLLQTELSGFLDVQKDADAVDKVMKELDENGDGEVDFKEYVVLVAALTVACNNFFWETS
Consider B2, for which, in data set [2], the binding result is given as “binds”. In addition, the “stoichiometry N” value in data set [3] was determined as 2.
